Measured values from PMC4058522, “Structural Basis for Phosphorylation-Dependent Recruitment of Tel2 to Hsp90 by Pih1” (Structure(London, England:1993), 2014).

Tests used:
[1] = molecular target: yeast Hsp90, intact (full-length) dimer (yeast) (UniProt P02829); test: ITC; 600 μM Tah1 injected into 40 μM yeast Hsp90; 10 mM Tris pH 7.5, 5 mM NaCl; 10°C or 30°C (not told which)
[2] = molecular target: mouse Pih1 PIH domain 1-200 (His-mPih1 1-200) (mouse) (UniProt Q9CQJ2); test: ITC; peptides at 350 μM injected into 30 μM Pih1 (mPIH domain) at 30°C; 20 mM Tris pH 7.5, 5 mM NaCl
[3] = molecular target: pre-assembled full-length yeast Tah1-Pih1 complex (yeast) (UniProt P25638); test: ITC; 301 μM yeast Hsp90 injected into 25 μM yeast Tah1-Pih1 complex; 10 mM Tris pH 7.5, 5 mM NaCl; 10°C or 30°C (not told which)
[4] = molecular target: human Spagh/RPAP3 120-395 (tandem TPR region) (human) (UniProt Q9H6T3); test: ITC; 500 μM yeast Hsp90 injected into 20 μM Spagh/RPAP3 120-395; 10 mM Tris pH 7.5, 5 mM NaCl; 10°C or 30°C (not told which)
Sequence of human Spagh/RPAP3 120-395 (tandem TPR region) (human) (Q9H6T3 120-395): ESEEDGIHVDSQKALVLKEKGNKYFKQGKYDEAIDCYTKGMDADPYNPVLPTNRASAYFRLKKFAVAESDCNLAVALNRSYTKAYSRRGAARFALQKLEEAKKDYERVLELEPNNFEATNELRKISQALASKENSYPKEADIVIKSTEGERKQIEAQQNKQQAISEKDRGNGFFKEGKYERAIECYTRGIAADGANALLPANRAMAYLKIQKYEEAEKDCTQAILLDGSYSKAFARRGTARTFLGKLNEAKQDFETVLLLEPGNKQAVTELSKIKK

Sequence of mouse Pih1 PIH domain 1-200 (His-mPih1 1-200) (mouse) (Q9CQJ2 1-200): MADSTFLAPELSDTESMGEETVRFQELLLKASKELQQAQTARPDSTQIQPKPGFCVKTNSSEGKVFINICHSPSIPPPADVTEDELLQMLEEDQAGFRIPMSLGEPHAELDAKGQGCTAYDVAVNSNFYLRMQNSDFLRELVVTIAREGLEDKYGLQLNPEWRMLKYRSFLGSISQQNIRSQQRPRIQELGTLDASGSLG

Row | Substance | Kd [2] [µM] | further results
1 | Tah1 (yeast, full-length) (from UniProt P25638 1-111) (natural protein) |  | Kd [1]: 5.9 µM; stoichiometry N (Tah1 per Hsp90 chain) [1]: 1
2 | mouse Tel2 484-496 peptide, bis-phosphorylated pSer 486 and pSer 488 | 37.9 | 
3 | mouse Tel2 484-496 peptide, bis-phosphorylated pSer 488 and pSer 492 (QGSDpSELDpSDDEF) | 0.17 | 
4 | mouse Tel2 484-496 peptide, pSer 486 | > 100 | 
5 | mouse Tel2 484-496 peptide, pSer 488 | 15.3 | 
6 | mouse Tel2 484-496 peptide, pSer 492 | 0.39 | 
7 | yeast Hsp90, intact (full-length) dimer (from UniProt P02829 1-709) (natural protein) |  | Kd [3]: 4 µM; Kd [4]: 6.8 µM; stoichiometry N ([4]; scale: Hsp90 chains per Spagh/RPAP3): 2
